# B1: murine IL-18: murine IL-18, amino acid sequence SEQ ID NO:2; interferon-γ-inducing factor cytokine (protein, listed as Mus musculus)
# chain: NFGRLHCTTAVIRNINDQVLFVDKRQPVFEDMTDIDQSASEPQTRLIIYMYKDSEVRGLAVTLSVKDSKMSTLSCKNKIISFEEMDPPENIDDIQSDLIFFQKRVPGHNKMEFESSLYEGHFLACQKEDDAFKLILKKKDENGDKSVMFTLTNLHQS
# Columns and labels:
# Chimpanzee PBMCs = test: Mediator induction in chimpanzee PBMCs (ELISA of supernatants); assay type: cell-based
# Description: Chimpanzee or human PBMCs were isolated and treated with either control media, human IL-18 at 100 ng/ml, or IL-18 (100 ng/ml) in combination with IL-2 at 3 ng/ml. Supernatants were frozen following incubation for 24, 48, 72, or 96 hours. Mediator levels were analyzed by ELISA. […] Moreover there is synergy between IL-2 and IL-18 at inducing GM-CSF, IL-8, Neopterin, and IFN-gamma (FIGS. 9 and 10). These observations were confirmed in multiple chimp and human donors.
# The highest protein levels were detected in samples obtained 96 hours post-treatment, with the exception of IFN-gamma that reached a maximum level at 24 hours.
# In this study, treatment with IL-2 alone was used as control.
# TNF-α, IFN-γ, and GM-CSF = test: Cytokine protein induction in uninfected mice (ELISA of sera and spleen homogenates); assay type: in vivo, Female Balb/C mice
# [1] = system: GM-CSF, IFN-gamma, and TNF mRNA; test: Cytokine mRNA induction in spleens of uninfected mice (quantitative real-time PCR); assay type: in vivo, Female Balb/C mice
# HSV-1 (SC-16) = test: Lethal systemic HSV infection model; assay type: in vivo, mice
# Description: Several studies evaluated the effect of murine IL-18 in a lethal systemic HSV infection model. Murine IL-18 was administered IP at −2 hours, 24 hours, and 48 hours following IP infection with HSV-1 (SC-16). IL-18 treatment at 10-ug/mouse lead to 40% survival in all studies, relative to no survival of vehicle treated animals (FIG. 5). […] In a single study, two daily doses of IL-18 at 100 ug/mouse lead to 70% survival (not shown).
# Hepatitis B Virus (HBV) = test: HBV transgenic mice, liver HBV DNA by Southern blot; assay type: in vivo; settings: Day 3
# Description: HBV transgenic mice (Guidotti et. al, 1995. J. Virol 69:6158-6169) were treated with three daily subcutaneous injections (Days 0, 1 and 2) of 4 different doses (100, 10, 1 and 0.1 microgram) of recombinant murine IL-18, with analysis of the liver for HBV DNA on Day 3 by Southern blot.
# [2] = post-treatment, IL-18 100 ng/ml
Molecule,"IL-8 induction (Chimpanzee PBMCs; IL-18 100 ng/ml, FIG. 9(a), donor species of FIG. 9 not given) [fold]","Neopterin induction (Chimpanzee PBMCs; IL-18 100 ng/ml, FIG. 9(b), donor species of FIG. 9 not given) [fold]","GM-CSF induction (Chimpanzee PBMCs; IL-18 100 ng/ml, FIG. 9(c), donor species of FIG. 9 not given) [fold]","IFN-gamma induction (Chimpanzee PBMCs; IL-18 100 ng/ml, FIG. 9(d), donor species of FIG. 9 not given) [fold]","inducing cytokine expression in chimp PBMCs (Chimpanzee PBMCs; human IL-18 100 ng/ml, 24-96 hours)","time of highest protein levels (IL-8, Neopterin, GM-CSF) (Chimpanzee PBMCs; [2]) [h]",time of maximum IFN-gamma level (Chimpanzee PBMCs; [2]) [h],"induction of GM-CSF protein (TNF-α, IFN-γ, and GM-CSF; IP 10 or 100 ug)","IFN levels in sera and spleens (TNF-α, IFN-γ, and GM-CSF; IP 10 or 100 ug murine IL-18, by 2.5 hours post-treatment) [ng/mL]","induction of TNF-α protein (TNF-α, IFN-γ, and GM-CSF; IP 10 or 100 ug, called minimal induction) [pg/mL]","IFN γ mRNA induction over vehicle ([1]; 2.5-6 hours post injection, real-time PCR, spleen)",TNF mRNA induction ([1]; quantitative real-time PCR),"GM-CSF mRNA induction relative to vehicle control ([1]; real-time PCR, data not shown)","survival (HSV-1 (SC-16); 10-ug/mouse IP at -2, 24 and 48 hours, vehicle: no survival) [%]",time to death (HSV-1 (SC-16); all studies),"survival (HSV-1 (SC-16); two daily doses at 100 ug/mouse, single study, not shown) [%]","reduction of liver HBV DNA at lowest dose (Hepatitis B Virus (HBV); 0.1 micrograms sc Days 0, 1, 2)","reduction of liver HBV DNA at higher doses (Hepatitis B Virus (HBV); 1, 10, 100 microgram sc Days 0, 1, 2)","virus replication (levels of viral DNA in liver) (Hepatitis B Virus (HBV); three daily sc injections, 100, 10, 1 and 0.1 microgram)"
"human IL-18: human IL-18, amino acid sequence SEQ ID NO:1; 157 amino acid cytokine, interferon-γ-inducing factor",14,7,100,8,active,96,24,–,–,–,–,–,–,–,–,–,–,–,–
B1,–,–,–,–,–,–,–,no induction,2,100,up to 20 fold,observed,6-10 fold,40,delay in time to death,70,some reduction,greater reductions,dose-dependent reduction

# Source: patent US20030113292A1, “Methods of treating viral diseases with il-18 and il-18 combinations” (priority 2000, published 2003)
